Assay results from publication PMC8844822, “SARM1 is a multi-functional NAD(P)ase with prominent base exchange activity, all regulated bymultiple physiologically relevant NAD metabolites” (iScience, 2022).

Test system: T1, NC(=O)c1ccc[n+]([C@@H]2O[C@H](COP(=O)([O-])OP(=O)(O)OC[C@H]3O[C@@H](n4cnc5c(N)ncnc54)[C@H](O)[C@@H]3O)[C@@H](O)[C@H]2O)c1
T1 construct: a soluble fragment Val43-Ile300 with 6x-His tag at C terminus; 6xHis (C); purchased R&D Systems
Assay: NAD(P)ase activity by HPLC (kinetics, substrates, metal ions)
Assay type: biochemical, human
Conditions: other: hCD38, substrate as labelled, 25°C, pH 7.5
Procedure: hSARM1 species were routinely assayed by the NAD/NADH-Glo^TM Assay (Promega) while both Aplysia cyclase and CD38 were assayed by fluorometry using ϵNAD ([Orsomando et al., 2000]). […] Other reagents used in addition to, or in place of those above are detailed in text or in figure legends, for example metal ions, free bases, dinucleotide analogues, mononucleotides, and ribosides. Assays were all carried out at 25°C except for temperature studies. Reactions were stopped by HClO4/K2CO3 and analysed by C18-HPLC as reported ([Mori et al., 2014]). Only the acid labile NADH and NADPH were treated with 1 N NaOH and neutralized using 1:1 vol of 1.73 M KH2CO3 while the highly hydrophobic metabolites vacor, VAD, VMN and VR, were analysed by a modified C18-HPLC method ([Buonvicino et al., 2018]). Reaction products were quantified from peak areas (see Figure 2A) based on coelution with standards (except for cyclic products from NAD analogues that were not available and were attributed based on UV-spectra and retention times as predicted). Rates were calculated as follows. Hydrolysis and cyclization were measured from product generation from the respective individual dinucleotide substrate used, e.g., free and cyclic ADP-ribosyl moieties from NAD (Figure 1B). A basal value for hydrolysis/cyclization was taken as sum of these latter two products. […]

human CD38 (Homo sapiens)
Km: 10.4 ± 2.90 µM
Vmax: 6.65 µmol/min/mg
